The Kd is the equilibrium constant for the complex coming apart. High values mean lower affinity, low ones higher affinity.

Bounds are passed on as bounds.

Experimental findings from patent publication US20120164688A1 (Regeneron, published 2012) are described below.

The target of one experiment is rat NGF (rNGF) (rat, UniProt P25427 122-241, limits assumed). Description: BIACORE SPR. On the procedure: (§1) Antibodies were captured on either a goat, anti-human or anti-mouse IgG polyclonal antibody surface created by direct amine coupling of the capture antibody to a BIACORE™ chip. […] Kinetic analysis was performed to obtain the equilibrium dissociation constant (KD) and dissociation rate constant, and the latter was used to calculate the antigen/antibody complex dissociation t_{1/2} (Table 1).
Sequence of rat NGF (rNGF) (P25427 122-241 limits assumed): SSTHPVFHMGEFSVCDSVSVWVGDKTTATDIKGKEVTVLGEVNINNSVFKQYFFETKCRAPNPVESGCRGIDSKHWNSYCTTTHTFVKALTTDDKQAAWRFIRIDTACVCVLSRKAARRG
(§2) The binding affinities of the antibodies to both mNGF and rNGF were determined as described above.

In experiment [1] the target is T1, human nerve growth factor (NGF) (human, UniProt P01138 122-241).
T1 construct: range 122-241; biotin-labeled in OCTET and ELISA assays; also called human NGF; biotin-NGF
T1 sequence (P01138 122-241 limits assumed): as the sequence (P25427 122-241 limits assumed) above, with T3S, V6I, M9R, T37M, A60D, E65D, T92M, D94G, A117V, G120A counted along it
Description: BIACORE SPR. How it is done: as §1, §2

The target in a further experiment is mouse NGF (mNGF) (mouse, UniProt P01139 122-241, limits assumed). Description: BIACORE SPR. How it is done:
as §1, §2

The target of experiment [2] is T1, human nerve growth factor (NGF). Description: BIACORE SPR; complex dissociation half-life. On the procedure:
as §1

Experiment [3] shares this target. Description: cell-based or functional assay.
For experiment [4], the target named is T2, human neurotrophin-3 (NT-3) (human, UniProt P20783 139-257).
T2 construct: also called human NT-3
T2 sequence (looked up): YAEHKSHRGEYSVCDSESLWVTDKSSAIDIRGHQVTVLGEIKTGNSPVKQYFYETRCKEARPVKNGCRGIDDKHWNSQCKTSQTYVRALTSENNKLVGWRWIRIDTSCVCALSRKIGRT
Description: BIACORE SPR; mAb captured, NT-3 injected. How it is done: (§3) Briefly, goat anti-human IgG polyclonal antibody was chemically linked to a CM5 chip. […] Both association and dissociation phases were monitored and data were analyzed.

For experiment [5], the target named is T1, human nerve growth factor (NGF). Description: BIACORE blocking; % free NGF bound to TrkA-hFc chip. The source says: (§4) To identify blocking antibodies, a receptor blocking assay was designed using a BIACORE™ 3000 instrument. Recombinant human TrkA-hFc and human p75-hFc proteins were amine-coupled to a CM5 chip to a density of about 5000-6000 RU.
T1 sequence (P01138 122-241 limits assumed): as the sequence (P25427 122-241 limits assumed) above, with T3S, V6I, M9R, T37M, A60D, E65D, T92M, D94G, A117V, G120A counted along it
In general terms: Surface plasmon resonance follows binding to a sensor surface in real time, without labels.

Experiment [6] has the same target. Description: BIACORE blocking; % free NGF bound to p75-hFc chip.
Text: as §4

Experiment [7] has the same target. Description: BIACORE SPR; mAb captured, human NGF injected. On the procedure:
as §1

The target is the same in experiment [8]. Description: BIACORE SPR; mAb captured, 20 nM NGF. On the procedure:
as §3

Sequence of mouse NGF (mNGF) (P01139 122-241 limits assumed): as the sequence (P25427 122-241 limits assumed) above, with G40A, K50R, P61S, D94E, A117T counted along it

B1: 301272-3H10-A10 (antibody)
heavy: not shown
VL: DIRMTQSPSSLSASAGDRVTITCRASQAIRNDLGWYQQKPGKAPKRLIYAAFNLQSGVPSRFSGSGSGTEFTLTISSLQPEDLASYYCQQYNRYPWTFGQGTKLEIK
notes: also called REGN261
With B1, the dissociation constant Kd with rat NGF (rNGF) worked out at 0.6 pM; in experiment [1], 0.1 pM; with mouse NGF (mNGF), 0.2 pM; in experiment [7], 0.1 pM; in experiment [8], 0.1 pM. Further, the t1/2 in [2] is 25.2 h. In addition, the “MG87 IC50” value in [3] is less than 186 pM. The “PC12 IC50” value in experiment [3] came out at 9 pM. Moreover, the binding result in experiment [4] is “no binding (tested: 20 nM)”. For the same molecule, the “% Binding TrkA-hFc” value in experiment [5] came out at 1%. Besides, the “% Binding p75-hFc” value in experiment [6] came to 2%.
